Measurements as given in article PMC10786891, “Massively parallel profiling of RNA-targeting CRISPR-Cas13d”.
Where a chain is given by its changes, count along the chain named. Numbers in names are those of the source.

T1: EsCas13d, nuclease-dead (Eubacterium siraeum, UniProt B0MS50, R295A;H300A;R849A;H854A)
T1 sequence: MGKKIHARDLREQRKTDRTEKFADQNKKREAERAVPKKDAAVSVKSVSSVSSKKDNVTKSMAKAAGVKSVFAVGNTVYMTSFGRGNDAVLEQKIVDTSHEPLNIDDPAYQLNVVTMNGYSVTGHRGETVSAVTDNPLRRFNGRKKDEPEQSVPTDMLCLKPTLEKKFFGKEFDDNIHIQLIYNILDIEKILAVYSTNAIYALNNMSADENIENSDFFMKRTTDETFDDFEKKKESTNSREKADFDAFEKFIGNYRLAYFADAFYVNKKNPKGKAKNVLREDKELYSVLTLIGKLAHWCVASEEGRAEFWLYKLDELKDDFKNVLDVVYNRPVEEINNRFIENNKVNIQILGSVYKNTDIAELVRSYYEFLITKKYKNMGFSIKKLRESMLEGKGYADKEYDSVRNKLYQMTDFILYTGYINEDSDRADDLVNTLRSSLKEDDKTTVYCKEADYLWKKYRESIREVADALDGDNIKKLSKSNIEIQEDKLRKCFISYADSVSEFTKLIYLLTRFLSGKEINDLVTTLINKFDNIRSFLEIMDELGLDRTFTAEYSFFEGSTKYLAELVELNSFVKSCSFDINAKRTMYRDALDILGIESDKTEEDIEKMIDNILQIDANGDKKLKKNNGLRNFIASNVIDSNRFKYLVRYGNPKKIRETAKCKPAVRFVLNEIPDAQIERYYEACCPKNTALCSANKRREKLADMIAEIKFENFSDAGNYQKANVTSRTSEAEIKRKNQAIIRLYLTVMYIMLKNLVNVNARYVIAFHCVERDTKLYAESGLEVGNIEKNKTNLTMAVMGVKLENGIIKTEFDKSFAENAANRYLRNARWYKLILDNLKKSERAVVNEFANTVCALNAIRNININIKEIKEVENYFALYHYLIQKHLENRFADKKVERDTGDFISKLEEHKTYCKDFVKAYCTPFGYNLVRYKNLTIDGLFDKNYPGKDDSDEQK

B1: target 1 insU 3' of 21,insA 3' of 2 (mixed)
RNA 1: CACCCGUGCAAAAAUGCAGGGGUCUAAAACUGAGCGGAUAACCUCUCUAUGG
RNA 2: GGGAAUGGAUCCACAUCUACGAAUUCGUACCUAUAGAGAGGUUAUCCGCUCAACCGAGAUCGGAAGAGCACACGU
B2: target 1 C2G,A14C (mixed)
RNA 1: B1 RNA 1
RNA 2: GGGAAUGGAUCCACAUCUACGAAUUCGUACCAUAGAGCGGUUAUCCGCUGACCGAGAUCGGAAGAGCACACGU
B3: target 1 C6A,C7G (mixed)
RNA 1: B1 RNA 1
RNA 2: B2 RNA 2 with C38A, C45G, C46A, G50C
B4: target 3 insU 3' of 4,insA 3' of 3 (mixed)
RNA 1: CACCCGUGCAAAAUUGCAGGGGUCUAAAACGACCUGAAUAUUUCAGAUCAAA
RNA 2: GGGAAUGGAUCCACAUCUACGAAUUCGUUUUUGAUCUGAAAUAUUCAGUGAUCUGCAGAUCGGAAGAGCACACGU
B5: target 3 insU 3' of 6,insA 3' of 4 (mixed)
RNA 1: B4 RNA 1
RNA 2: B4 RNA 2 with A47U, G48A, U49G, G50A, A51G
B6: target 3 insC 3' of 8,insU 3' of 4 (mixed)
RNA 1: B4 RNA 1
RNA 2: B4 RNA 2 with U45C, C46U, A47C, G48A, U49G, G50U, A51G
B7: target 3 G4C,U22C (mixed)
RNA 1: B4 RNA 1
RNA 2: GGGAAUGGAUCCACAUCUACGAAUUCGUUCUUGAUCUGAAAUAUUCACGUCUGCAGAUCGGAAGAGCACACGU
B8: target 3 insA 3' of 16,insA 3' of 2 (mixed)
RNA 1: B4 RNA 1
RNA 2: GGGAAUGGAUCCACAUCUACGAAUUCGUUUUUGAUCAUGAAAUAUUCAGGUACUGCAGAUCGGAAGAGCACACGU
B9: target 3 insA 3' of 3,insU 3' of 3 (mixed)
RNA 1: B4 RNA 1
RNA 2: B4 RNA 2 with U49G, G50A, A51U
B10: target 3 insA 3' of 19,insU 3' of 1 (mixed)
RNA 1: B4 RNA 1
RNA 2: B8 RNA 2 with U35A, C36U, A37C, A52C, C53U
B11: target 3 insA 3' of 14,insA 3' of 6 (mixed)
RNA 1: B4 RNA 1
RNA 2: B8 RNA 2 with A37U, U38G, G39A, G49A, U51G, A52U
B12: target 3 insC 3' of 9,insC 3' of 5 (mixed)
RNA 1: B4 RNA 1
RNA 2: B4 RNA 2 with U44C, C46U, A47C, G48A, U49C, A51G
B13: target 3 insU 3' of 4,insA 3' of 2 (mixed)
RNA 1: B4 RNA 1
RNA 2: B4 RNA 2 with A51U, U52A
B14: target 3 U2C,G14U (mixed)
RNA 1: B4 RNA 1
RNA 2: B7 RNA 2 with C30U, G38U, C48G, U50C
B15: target 3 insA 3' of 8,insG 3' of 8 (mixed)
RNA 1: B4 RNA 1
RNA 2: B4 RNA 2 with U45A, C46G, A47U, G48C, U49A, A51G
B16: target 3 insC 3' of 13,insU 3' of 3 (mixed)
RNA 1: B4 RNA 1
RNA 2: B8 RNA 2 with A37U, U38G, G39A, A40C, A52U
B17: target 3 A5G,U22A (mixed)
RNA 1: B4 RNA 1
RNA 2: B7 RNA 2 with C30A, A47G, C48G
B18: target 3 G4U,U22A (mixed)
RNA 1: B4 RNA 1
RNA 2: B7 RNA 2 with C30A, C48U
B19: target 3 U7A,A9G (mixed)
RNA 1: B4 RNA 1
RNA 2: B7 RNA 2 with C30U, A43G, U45A, C48G
B20: target 3 del4,del6 (mixed)
RNA 1: B4 RNA 1
RNA 2: GGGAAUGGAUCCACAUCUACGAAUUCGUUUUUGAUCUGAAAUAUUAGUCUGCAGAUCGGAAGAGCACACGU
B21: target 3 insA 3' of 7,insA 3' of 6 (mixed)
RNA 1: B4 RNA 1
RNA 2: B4 RNA 2 with C46A, A47C, G48A, U49A, A51G
B22: target 3 G4C,A11G (mixed)
RNA 1: B4 RNA 1
RNA 2: B7 RNA 2 with C30U, A41G
B23: target 3 insA 3' of 21,insU 3' of 5 (mixed)
RNA 1: B4 RNA 1
RNA 2: B8 RNA 2 with U32A, G33U, A34G, U35A, C36U, A37C, G49U, U51G, A52U
B24: target 3 A18G,U20A (mixed)
RNA 1: B4 RNA 1
RNA 2: B7 RNA 2 with C30U, U32A, A34G, C48G
B25: target 3 complement block 6-8 (mixed)
RNA 1: B4 RNA 1
RNA 2: B7 RNA 2 with C30U, U44A, U45A, C46G, C48G
B26: target 3 G3C,C6U (mixed)
RNA 1: B4 RNA 1
RNA 2: B7 RNA 2 with C30U, C46U, C48G, G49C
B27: target 3 complement block 3-6 (mixed)
RNA 1: B4 RNA 1
RNA 2: B7 RNA 2 with C30U, C46G, A47U, G49C
B28: target 3 insA 3' of 21,insC 3' of 20 (mixed)
RNA 1: B4 RNA 1
RNA 2: GGGAAUGGAUCCACAUCUACGAAUUCGUUUUAUCGAUCUGAAAUAUUCAGGUCUGCAGAUCGGAAGAGCACACGU
B29: target 3 G4C,U20C (mixed)
RNA 1: B4 RNA 1
RNA 2: B7 RNA 2 with C30U, U32C
B30: target 3 insU 3' of 22,insG 3' of 8 (mixed)
RNA 1: B4 RNA 1
RNA 2: GGGAAUGGAUCCACAUCUACGAAUUCGUUUUUUGAUCUGAAAUAUGUCAGGUCUGCAGAUCGGAAGAGCACACGU
B31: target 3 A11G (mixed)
RNA 1: B4 RNA 1
RNA 2: B7 RNA 2 with C30U, A41G, C48G

Molecular target: T1, EsCas13d, nuclease-dead
Assay: crRNA (strand 1, pre-loaded); Mg2+; 40 mM Tris-HCl pH 7.5, 150 mM NaCl, 6 mM MgCl2, 1 mM DTT, 0.1% Tween-20, 0.2 mg/ml BSA; 25 C; 10 min per concentration, then washed
Conditions: tags: His6-TwinStrep-SUMO cleaved; N-terminal SNAP kept (SNAP-Surface 488); label: 3' end held by stalled T7 RNA polymerase

Binder | Kd
B1 | 0.0268 ± 0.0028 µM
B2 | 0.0448 ± 0.0033 µM
B3 | 0.00686 ± 0.00018 µM
B4 | 0.0178 ± 0.00245 µM
B5 | 0.0194 ± 0.0036 µM
B6 | 0.105 ± 0.042 µM
B7 | 0.013 ± 0.00215 µM
B8 | 0.0845 ± 0.0255 µM
B9 | 0.0279 ± 0.0029 µM
B10 | 0.068 ± 0.021 µM
B11 | 0.0905 ± 0.025 µM
B12 | 0.099 ± 0.021 µM
B13 | 0.00465 ± 0.00075 µM
B14 | 0.082 ± 0.034 µM
B15 | 0.0535 ± 0.0085 µM
B16 | 0.0325 ± 0.008 µM

Binder | Kd
B17 | 0.0216 ± 0.00285 µM
B18 | 0.00445 ± 0.000435 µM
B19 | 0.097 ± 0.0175 µM
B20 | 0.019 ± 0.00325 µM
B21 | 0.0237 ± 0.00265 µM
B22 | 0.0545 ± 0.0185 µM
B23 | 0.044 ± 0.00465 µM
B24 | 0.0835 ± 0.0365 µM
B25 | 0.102 ± 0.0235 µM
B26 | 0.0131 ± 0.00095 µM
B27 | 0.057 ± 0.006 µM
B28 | 0.0735 ± 0.0205 µM
B29 | 0.057 ± 0.012 µM
B30 | 0.0505 ± 0.0115 µM
B31 | 0.057 ± 0.0115 µM
